Laboratory results published in patent US20010023068.

System: G-protein beta/gamma subunits (Gβγ)

Substance | fold stimulation of 32P incorporation into PIP3 in the presence of Gβγ over that in its absence | pmol incorporation of 32P into PIP3, Plus Gβγ [pmol] | fold stimulation of 32P incorporation into PIP3 in the presence of Gβγ over basal activity
p110g/SVP4b heterodimer (GFP-fusion tagged p110gamma co-expressed with SVP4b in SF21 cells) | a 9.4 fold stimulation of ^32P incorporation into PIP3 over that seen in the absence of Gβγ was seen with the p110g/SVP4b heterodimer | 10.3 | –
p110g/p101 heterodimer (GFP-fusion tagged p110gamma co-expressed with full length p101 in SF21 cells) | – | 13.5 | the p101/p101 heterodimer produced a 4.6 fold stimulation over basal activity in the presence of Gβγ
